Measurements published in patent US20230416330A1, “Optimized GIP Peptide Analogues” (Antag Therapeutics ApS, priority 2019, published 2023).
Starred links: 1 amine or outer side, 2 acyl side, 3 side chain; linkers in the order of their positions; H or OH if unused. Non-standard residues stand in square brackets, D forms with d. Groups on a side chain read outwards from the residue. No end group written: not given here. *: point of attachment. C18 diacid = O=C(O)CCCCCCCCCCCCCCCCC(=O)*; C16 diacid = O=C(O)CCCCCCCCCCCCCCC(=O)*; γGlu = O=C(O)[C@H](CCC(=O)[*:2])N[*:1]; Adipoyl = O=C(CCCCC(=O)[*:2])[*:1]; Glutaryl = O=C(CCCC(=O)[*:2])[*:1]; Suc = O=C(CCC(=O)[*:2])[*:1]; Nle = CCCC[C@H](N)C(=O)O; AEEA = NCCOCCOCC(=O)O; Aib = CC(C)(N)C(=O)O

T1: human GIP receptor (human, UniProt P48546 22-466)
T1 sequence (looked up): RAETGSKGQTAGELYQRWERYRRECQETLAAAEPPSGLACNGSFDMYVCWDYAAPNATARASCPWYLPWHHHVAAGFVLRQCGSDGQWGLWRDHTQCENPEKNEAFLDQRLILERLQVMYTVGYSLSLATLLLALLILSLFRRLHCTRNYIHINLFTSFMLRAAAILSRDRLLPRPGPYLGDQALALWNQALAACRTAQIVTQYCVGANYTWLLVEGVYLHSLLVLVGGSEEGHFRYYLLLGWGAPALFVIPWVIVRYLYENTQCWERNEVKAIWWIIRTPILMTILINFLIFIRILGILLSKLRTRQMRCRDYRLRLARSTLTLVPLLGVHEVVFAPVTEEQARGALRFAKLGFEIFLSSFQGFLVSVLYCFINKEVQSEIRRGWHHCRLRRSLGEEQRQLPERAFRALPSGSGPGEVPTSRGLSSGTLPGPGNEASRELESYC

B1: AT754 (peptide)
peptide: EGTFISEYSI[Aib]LEKIK([AEEA-AEEA-γGlu-C18 diacid])QQDFVEWLLAQKPSSGAPPPS-OH
modifications: N-terminus assumed
SMILES: CC[C@H](C)[C@H](NC(=O)[C@H](CCCCN)NC(=O)[C@H](CCC(=O)O)NC(=O)[C@H](CC(C)C)NC(=O)C(C)(C)NC(=O)[C@@H](NC(=O)[C@H](CO)NC(=O)[C@H](Cc1ccc(O)cc1)NC(=O)[C@H](CCC(=O)O)NC(=O)[C@H](CO)NC(=O)[C@@H](NC(=O)[C@H](Cc1ccccc1)NC(=O)[C@@H](NC(=O)CNC(=O)[C@@H](N)CCC(=O)O)[C@@H](C)O)[C@@H](C)CC)[C@@H](C)CC)C(=O)N[C@@H](CCCCNC(=O)COCCOCCNC(=O)COCCOCCNC(=O)CC[C@H](NC(=O)CCCCCCCCCCCCCCCCC(=O)O)C(=O)O)C(=O)N[C@@H](CCC(N)=O)C(=O)N[C@@H](CCC(N)=O)C(=O)N[C@@H](CC(=O)O)C(=O)N[C@@H](Cc1ccccc1)C(=O)N[C@H](C(=O)N[C@@H](CCC(=O)O)C(=O)N[C@@H](Cc1c[nH]c2ccccc12)C(=O)N[C@@H](CC(C)C)C(=O)N[C@@H](CC(C)C)C(=O)N[C@@H](C)C(=O)N[C@@H](CCC(N)=O)C(=O)N[C@@H](CCCCN)C(=O)N1CCC[C@H]1C(=O)N[C@@H](CO)C(=O)N[C@@H](CO)C(=O)NCC(=O)N[C@@H](C)C(=O)N1CCC[C@H]1C(=O)N1CCC[C@H]1C(=O)N1CCC[C@H]1C(=O)N[C@@H](CO)C(=O)O)C(C)C
B2: AT707 (peptide)
peptide: Glutaryl-GTFISEYSIALEKIK([AEEA-AEEA-γGlu-C18 diacid])QQEFVEWLLAQKPSSGAPPPS-OH
SMILES: CC[C@H](C)[C@H](NC(=O)[C@H](CO)NC(=O)[C@H](Cc1ccc(O)cc1)NC(=O)[C@H](CCC(=O)O)NC(=O)[C@H](CO)NC(=O)[C@@H](NC(=O)[C@H](Cc1ccccc1)NC(=O)[C@@H](NC(=O)CNC(=O)CCCC(=O)O)[C@@H](C)O)[C@@H](C)CC)C(=O)N[C@@H](C)C(=O)N[C@@H](CC(C)C)C(=O)N[C@@H](CCC(=O)O)C(=O)N[C@@H](CCCCN)C(=O)N[C@H](C(=O)N[C@@H](CCCCNC(=O)COCCOCCNC(=O)COCCOCCNC(=O)CC[C@H](NC(=O)CCCCCCCCCCCCCCCCC(=O)O)C(=O)O)C(=O)N[C@@H](CCC(N)=O)C(=O)N[C@@H](CCC(N)=O)C(=O)N[C@@H](CCC(=O)O)C(=O)N[C@@H](Cc1ccccc1)C(=O)N[C@H](C(=O)N[C@@H](CCC(=O)O)C(=O)N[C@@H](Cc1c[nH]c2ccccc12)C(=O)N[C@@H](CC(C)C)C(=O)N[C@@H](CC(C)C)C(=O)N[C@@H](C)C(=O)N[C@@H](CCC(N)=O)C(=O)N[C@@H](CCCCN)C(=O)N1CCC[C@H]1C(=O)N[C@@H](CO)C(=O)N[C@@H](CO)C(=O)NCC(=O)N[C@@H](C)C(=O)N1CCC[C@H]1C(=O)N1CCC[C@H]1C(=O)N1CCC[C@H]1C(=O)N[C@@H](CO)C(=O)O)C(C)C)[C@@H](C)CC
B3: AT755 (peptide)
peptide: Glutaryl-GTFISEYSI[Aib][Nle]EKIK(C16 diacid)QQEFVEWLLAQKPSSGAPPPS-OH
SMILES: CCCC[C@H](NC(=O)C(C)(C)NC(=O)[C@@H](NC(=O)[C@H](CO)NC(=O)[C@H](Cc1ccc(O)cc1)NC(=O)[C@H](CCC(=O)O)NC(=O)[C@H](CO)NC(=O)[C@@H](NC(=O)[C@H](Cc1ccccc1)NC(=O)[C@@H](NC(=O)CNC(=O)CCCC(=O)O)[C@@H](C)O)[C@@H](C)CC)[C@@H](C)CC)C(=O)N[C@@H](CCC(=O)O)C(=O)N[C@@H](CCCCN)C(=O)N[C@H](C(=O)N[C@@H](CCCCNC(=O)CCCCCCCCCCCCCCC(=O)O)C(=O)N[C@@H](CCC(N)=O)C(=O)N[C@@H](CCC(N)=O)C(=O)N[C@@H](CCC(=O)O)C(=O)N[C@@H](Cc1ccccc1)C(=O)N[C@H](C(=O)N[C@@H](CCC(=O)O)C(=O)N[C@@H](Cc1c[nH]c2ccccc12)C(=O)N[C@@H](CC(C)C)C(=O)N[C@@H](CC(C)C)C(=O)N[C@@H](C)C(=O)N[C@@H](CCC(N)=O)C(=O)N[C@@H](CCCCN)C(=O)N1CCC[C@H]1C(=O)N[C@@H](CO)C(=O)N[C@@H](CO)C(=O)NCC(=O)N[C@@H](C)C(=O)N1CCC[C@H]1C(=O)N1CCC[C@H]1C(=O)N1CCC[C@H]1C(=O)N[C@@H](CO)C(=O)O)C(C)C)[C@@H](C)CC
B4: AT705 (peptide)
peptide: Glutaryl-GTFISEYSI[Aib]LEKIK([AEEA-AEEA-γGlu-C18 diacid])QQEFVEWLLAQKPSSGAPPPS-OH
SMILES: CC[C@H](C)[C@H](NC(=O)[C@H](CCCCN)NC(=O)[C@H](CCC(=O)O)NC(=O)[C@H](CC(C)C)NC(=O)C(C)(C)NC(=O)[C@@H](NC(=O)[C@H](CO)NC(=O)[C@H](Cc1ccc(O)cc1)NC(=O)[C@H](CCC(=O)O)NC(=O)[C@H](CO)NC(=O)[C@@H](NC(=O)[C@H](Cc1ccccc1)NC(=O)[C@@H](NC(=O)CNC(=O)CCCC(=O)O)[C@@H](C)O)[C@@H](C)CC)[C@@H](C)CC)C(=O)N[C@@H](CCCCNC(=O)COCCOCCNC(=O)COCCOCCNC(=O)CC[C@H](NC(=O)CCCCCCCCCCCCCCCCC(=O)O)C(=O)O)C(=O)N[C@@H](CCC(N)=O)C(=O)N[C@@H](CCC(N)=O)C(=O)N[C@@H](CCC(=O)O)C(=O)N[C@@H](Cc1ccccc1)C(=O)N[C@H](C(=O)N[C@@H](CCC(=O)O)C(=O)N[C@@H](Cc1c[nH]c2ccccc12)C(=O)N[C@@H](CC(C)C)C(=O)N[C@@H](CC(C)C)C(=O)N[C@@H](C)C(=O)N[C@@H](CCC(N)=O)C(=O)N[C@@H](CCCCN)C(=O)N1CCC[C@H]1C(=O)N[C@@H](CO)C(=O)N[C@@H](CO)C(=O)NCC(=O)N[C@@H](C)C(=O)N1CCC[C@H]1C(=O)N1CCC[C@H]1C(=O)N1CCC[C@H]1C(=O)N[C@@H](CO)C(=O)O)C(C)C
B5: AT753 (peptide)
peptide: Adipoyl-GTFISEYSI[Aib]LEKIK([AEEA-AEEA-γGlu-C18 diacid])QQEFVEWLLAQKPSSGAPPPS-OH
SMILES: CC[C@H](C)[C@H](NC(=O)[C@H](CCCCN)NC(=O)[C@H](CCC(=O)O)NC(=O)[C@H](CC(C)C)NC(=O)C(C)(C)NC(=O)[C@@H](NC(=O)[C@H](CO)NC(=O)[C@H](Cc1ccc(O)cc1)NC(=O)[C@H](CCC(=O)O)NC(=O)[C@H](CO)NC(=O)[C@@H](NC(=O)[C@H](Cc1ccccc1)NC(=O)[C@@H](NC(=O)CNC(=O)CCCCC(=O)O)[C@@H](C)O)[C@@H](C)CC)[C@@H](C)CC)C(=O)N[C@@H](CCCCNC(=O)COCCOCCNC(=O)COCCOCCNC(=O)CC[C@H](NC(=O)CCCCCCCCCCCCCCCCC(=O)O)C(=O)O)C(=O)N[C@@H](CCC(N)=O)C(=O)N[C@@H](CCC(N)=O)C(=O)N[C@@H](CCC(=O)O)C(=O)N[C@@H](Cc1ccccc1)C(=O)N[C@H](C(=O)N[C@@H](CCC(=O)O)C(=O)N[C@@H](Cc1c[nH]c2ccccc12)C(=O)N[C@@H](CC(C)C)C(=O)N[C@@H](CC(C)C)C(=O)N[C@@H](C)C(=O)N[C@@H](CCC(N)=O)C(=O)N[C@@H](CCCCN)C(=O)N1CCC[C@H]1C(=O)N[C@@H](CO)C(=O)N[C@@H](CO)C(=O)NCC(=O)N[C@@H](C)C(=O)N1CCC[C@H]1C(=O)N1CCC[C@H]1C(=O)N1CCC[C@H]1C(=O)N[C@@H](CO)C(=O)O)C(C)C
B6: AT706 (peptide)
peptide: Glutaryl-GTFISEYSI[Aib][Nle]EKIK([AEEA-AEEA-γGlu-C18 diacid])QQEFVEWLLAQKPSSGAPPPS-OH
SMILES: CCCC[C@H](NC(=O)C(C)(C)NC(=O)[C@@H](NC(=O)[C@H](CO)NC(=O)[C@H](Cc1ccc(O)cc1)NC(=O)[C@H](CCC(=O)O)NC(=O)[C@H](CO)NC(=O)[C@@H](NC(=O)[C@H](Cc1ccccc1)NC(=O)[C@@H](NC(=O)CNC(=O)CCCC(=O)O)[C@@H](C)O)[C@@H](C)CC)[C@@H](C)CC)C(=O)N[C@@H](CCC(=O)O)C(=O)N[C@@H](CCCCN)C(=O)N[C@H](C(=O)N[C@@H](CCCCNC(=O)COCCOCCNC(=O)COCCOCCNC(=O)CC[C@H](NC(=O)CCCCCCCCCCCCCCCCC(=O)O)C(=O)O)C(=O)N[C@@H](CCC(N)=O)C(=O)N[C@@H](CCC(N)=O)C(=O)N[C@@H](CCC(=O)O)C(=O)N[C@@H](Cc1ccccc1)C(=O)N[C@H](C(=O)N[C@@H](CCC(=O)O)C(=O)N[C@@H](Cc1c[nH]c2ccccc12)C(=O)N[C@@H](CC(C)C)C(=O)N[C@@H](CC(C)C)C(=O)N[C@@H](C)C(=O)N[C@@H](CCC(N)=O)C(=O)N[C@@H](CCCCN)C(=O)N1CCC[C@H]1C(=O)N[C@@H](CO)C(=O)N[C@@H](CO)C(=O)NCC(=O)N[C@@H](C)C(=O)N1CCC[C@H]1C(=O)N1CCC[C@H]1C(=O)N1CCC[C@H]1C(=O)N[C@@H](CO)C(=O)O)C(C)C)[C@@H](C)CC
B7: AT752 (peptide)
peptide: Suc-GTFISEYSI[Aib]LEKIK([AEEA-AEEA-γGlu-C18 diacid])QQEFVEWLLAQKPSSGAPPPS-OH

Biological target: T1, human GIP receptor
Assay: cell-based or functional assay

Binder | nM (Kb, Gaddum assay, cAMP) | pKb (Gaddum assay, cAMP)
B1 | 2.2 nM | 8.7
B2 | 0.28 nM | 9.6
B3 | 0.23 nM | 9.6
B4 | 0.23 nM | 9.6
B5 | 0.23 nM | 9.6
B6 | 0.26 nM | 9.6
B7 | 0.52 nM | 9.3
